Columns and labels:
[1] = target: soluble trimeric-RBD form of the SARS-CoV-2 S protein (RBD aa 330-532, Wuhan strain, with a foldon t (SARS-CoV-2 (ancestral Wuhan strain) | T4 (as in 'T4 fibritin')) (UniProt P0DTC2)); assay: Western blot under non-reducing conditions
[2] = target: soluble trimeric-RBD form of the SARS-CoV-2 S protein (RBD aa 330-532, Wuhan strain, with a foldon t (SARS-CoV-2 (ancestral Wuhan strain) | T4 (as in 'T4 fibritin')) (UniProt P0DTC2)); assay: SEC

**Q.** For “soluble trimeric-RBD form of the SARS-CoV-2 S protein (RBD aa 330-532, Wuhan strain, with a foldon t (from UniProt P0DTC2 330-532) (domain or fragment)”, which stoichiometry N [1] is on record?
**A.** 3

**Q.** And the stoichiometry N [2]?
**A.** 3

From PMC11313003
